According to patent publication US20110039770A1, “INHIBITORS OF PROTEIN KINASE C ISOFORMS AND USES THEREOF” (PHARMAGAP INC., priority 2005, published 2011):
Where a SMILES comes first, the peptide text is derived from it. [ ]: non-standard residue; d: D form.

Columns and labels:
PKC-βII = PKC-βII (Homo sapiens, UniProt P05771); test: ELISA-based competitive binding assay with purified PKC isoform; design: key to Affinity for PKC isoform βII: —: no detectable affinity; Low to very low affinity at 10X or 20X or both PRE concentrations in at least one cell line in the cell extract assay; Low affinity in purified isoform assay.; Moderate affinity at 10X or 20X or both PRE concentrations in at least one cell line in the cell extract assay.; High affinity at 10X or 20X or both PRE concentrations in at least one cell line in the cell extract assay; High affinity in purified isoform assay; conditions: for Affinity for PKC isoform βII: Purified isoform
PKC-βII, sequence (P05771 1-673 isoform P05771-2): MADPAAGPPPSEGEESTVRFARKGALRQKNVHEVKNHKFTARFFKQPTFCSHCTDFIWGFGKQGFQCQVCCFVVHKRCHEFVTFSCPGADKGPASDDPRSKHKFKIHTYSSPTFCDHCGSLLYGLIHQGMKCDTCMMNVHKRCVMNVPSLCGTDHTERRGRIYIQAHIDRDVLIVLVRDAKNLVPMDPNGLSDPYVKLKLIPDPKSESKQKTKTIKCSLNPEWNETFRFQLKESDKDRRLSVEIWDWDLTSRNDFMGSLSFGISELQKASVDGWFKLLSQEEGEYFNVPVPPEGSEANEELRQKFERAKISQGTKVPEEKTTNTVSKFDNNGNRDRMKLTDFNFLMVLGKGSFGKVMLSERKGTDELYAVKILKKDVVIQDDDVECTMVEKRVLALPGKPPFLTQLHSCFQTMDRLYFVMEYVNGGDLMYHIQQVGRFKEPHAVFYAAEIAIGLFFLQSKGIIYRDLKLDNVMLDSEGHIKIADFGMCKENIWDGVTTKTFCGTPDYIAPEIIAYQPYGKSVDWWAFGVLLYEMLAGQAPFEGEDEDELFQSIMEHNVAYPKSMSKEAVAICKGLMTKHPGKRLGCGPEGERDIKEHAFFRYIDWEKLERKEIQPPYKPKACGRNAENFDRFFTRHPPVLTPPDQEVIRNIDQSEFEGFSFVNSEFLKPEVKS
Description: (§1) Peptides PRE 1, 2, 3, 4, 5, 6, 7, 8, 9, 10, 11, 12 and 13 (see Table 3) were tested for their ability to interfere with binding of PKC isoform-specific antibodies to their target PKC isoforms using a competitive binding assay and purified PKC isoforms.
(§2) Procedure: Competitive binding was assessed using a 96 well plate ELISA-based assay as described below.
(§3) Greiner 96 well ELISA plates were coated with the appropriate PKC isoform diluted in PBSN (PBS with Calcium/Magnesium+0.05% Sodium azide w/w). 50 μL/well at 250 ng/mL was used. Control wells contained PBSN only. Plates were incubated overnight at 4° C.
(§4) The plates were washed 3 times with 200 μL of dH2O per well, then 100 μL of blocking solution was added per well and the plate incubated for 1 h at 37° C. The washing steps with dH2O were repeated and 50 μL of the appropriate PRE solution (PRE stock solution [20 mM in DMSO] diluted in PBSN) was added and the plate incubated for 1 h at room temperature.
(§5) After incubation, 5 μL of 1.1:400 anti-PKC (isoform specific antibody) was added per well (to provide a final concentration of 1:4000). For PKC-epsilon, 1.1:800 dilution was used and for PKC-zeta a 1.1:100 dilution was used due to high and low binding affinity, respectively. The plates were then incubated 1 h at room temperature, followed by washing with dH2O as described above.
(§6) 50 μL of 1:1000 dilution of Alkaline Phosphatase (AP) conjugated antibody (anti-rabbit for all except zeta, which was anti-goat) was then added and the plate incubated for 1 h at room temperature. Washing with dH2O was then repeated. Finally, 100 μL of pNPP solution in pNPP buffer (2 mM MgCl2, 100 mM Sodium bicarbonate in water, pH 9.8) was added to all wells and incubated for 8 minutes for α, βI, βII ε, and ζ, or for 15-20 mins for δ (until sufficient coloration is observed). The reaction was stopped by addition of Stop solution (2N NaOH) and the absorbance at 405 nm was read on a Galaxy Plate reader.
(§7) Controls were PKC without PRE; blank controls, and controls containing the final concentrations of DMSO used for solubilizing the PREs. The non-specific binding capacity related to DMSO was also measured.
(§8) The antibodies used were as follows: anti-PKC α (Cat. No. SC-208); anti-PKC βI (Cat. No. SC-209); anti-PKC βII (Cat. No. SC-210); anti-PKC δ (Cat. No. SC-213); anti-PKC ε (Cat. No. SC-214); anti-PKC ζ (Cat. No. SC-216-G) (all from Santa Cruz Biotechnology, Inc.). The AP-conjugated antibodies were obtained from Jackson Immuno Research Laboratories (West Grove, Pa.).
(§9) Calculations: The OD values measured at 405 nm represent the free PKC coated per well.
(§10) OD405 PKC alone−Blank OD405 of each sample=OD405 coated isoform
(§11) (OD405 of sample X/OD405 coated isoform)×100=% n that represents the percentage of X binding compared to control.
(§12) 100-% n measures the relative binding capacity of X towards the tested isoform.
(§13) The apparent binding capacity of the DMSO samples was then subtracted from X binding capacity.
(§14) All measurements were made in triplicate and the values in the table represent the averaged calculated binding capacity values after subtraction of the DMSO apparent binding capacity (averaged from 12 values, respectively 10.80, 11.20 and 16.40 corresponding to the concentrations of DMSO used to dilute the […] at 200, 100 and 50 μM respectively). The results allow for quantitative comparison of the binding capacity of each PRE towards an individual isoform within each table, but not among isoforms due to differences in sensitivity of the specific antibodies toward the secondary antibody. This applies particularly to PKC-delta. As noted above, the colour development duration was increased 2-3 times and, as a result, the OD405 measurements may be overestimated for this isoform.

PKC-δ = PKC-δ (Homo sapiens, UniProt Q05655); test: as above; design: key to Affinity for PKC isoform δ: —: no detectable affinity; Low to very low affinity at 10X or 20X or both PRE concentrations in at least one cell line in the cell extract assay; Low affinity in purified isoform assay.; Moderate affinity at 10X or 20X or both PRE concentrations in at least one cell line in the cell extract assay.; High affinity at 10X or 20X or both PRE concentrations in at least one cell line in the cell extract assay; High affinity in purified isoform assay; conditions: for Affinity for PKC isoform δ: Purified isoform
PKC-δ, sequence (Q05655 whole entry, canonical isoform): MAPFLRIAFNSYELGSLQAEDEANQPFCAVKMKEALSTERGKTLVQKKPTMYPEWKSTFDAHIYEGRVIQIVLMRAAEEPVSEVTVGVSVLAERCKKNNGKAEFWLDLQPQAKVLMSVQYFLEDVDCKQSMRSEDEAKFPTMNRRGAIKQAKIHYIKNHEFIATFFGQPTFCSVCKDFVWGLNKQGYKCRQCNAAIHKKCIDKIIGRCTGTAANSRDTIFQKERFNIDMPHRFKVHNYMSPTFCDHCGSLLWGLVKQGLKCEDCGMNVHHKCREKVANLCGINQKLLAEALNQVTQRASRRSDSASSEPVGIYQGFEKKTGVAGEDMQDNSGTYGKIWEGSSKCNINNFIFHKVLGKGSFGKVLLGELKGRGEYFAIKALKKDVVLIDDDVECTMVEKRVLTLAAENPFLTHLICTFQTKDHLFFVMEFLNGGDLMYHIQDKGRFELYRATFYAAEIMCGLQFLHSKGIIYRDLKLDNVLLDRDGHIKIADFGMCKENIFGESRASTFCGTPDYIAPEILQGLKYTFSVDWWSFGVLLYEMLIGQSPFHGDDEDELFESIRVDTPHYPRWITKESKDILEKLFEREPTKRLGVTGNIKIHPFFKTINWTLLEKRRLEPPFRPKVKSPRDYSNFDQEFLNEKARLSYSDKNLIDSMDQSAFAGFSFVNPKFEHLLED
Description: as §1, §2, §3, §4, §5, §6, §7, §8, §9, §10, §11, §12, §13, §14

PKC-α = PKC-α (Homo sapiens, UniProt P17252); test: Competitive binding assay using cell extracts (Western blot); design: endogenous PKC-α in (A) untreated human neuroblastoma (IMR-32) cells; endogenous in cells; host or cells: IMR-32 human neuroblastoma cells; key: —: no detectable affinity; Low to very low affinity at 10X or 20X or both PRE concentrations in at least one cell line in the cell extract assay; Low affinity in purified isoform assay.; Moderate affinity at 10X or 20X or both PRE concentrations in at least one cell line in the cell extract assay.; High affinity at 10X or 20X or both PRE concentrations in at least one cell line in the cell extract assay; High affinity in purified isoform assay; conditions: Cell extract; PRE 10X or 20X antibody concentration
[1] = PRE 50 μM, purified PKC-βII, read-out: calculated binding capacity (100-% n, DMSO apparent binding subtracted)
[2] = PRE 100 μM, purified PKC-βII, read-out: calculated binding capacity (100-% n, DMSO apparent binding subtracted)

| Affinity for PKC isoform βII (PKC-βII) | Affinity for PKC isoform δ (PKC-δ) | Affinity for PKC isoform α (PKC-α) | other results | Compound |
| --- | --- | --- | --- | --- |
| — | H | H | inhibition at 50 µM (PKC-βII; [1]): 0%; inhibition at 100 µM (PKC-βII; [2]): 0% | CC[C@H](C)[C@H](NC(=O)[C@H](CO)NC(=O)[C@@H](NC(=O)CNC(=O)[C@@H](NC(=O)[C@H](CC(C)C)NC(=O)[C@H](CC(N)=O)NC(=O)[C@H](CCC(N)=O)NC(=O)[C@H](C)NC(=O)[C@H](CC(=O)O)NC(=O)CNC(=O)CNC(=O)[C@H](CCCCN)NC(=O)[C@@H](NC(=O)[C@H](CCC(=O)O)NC(=O)[C@H](CCC(N)=O)NC(=O)[C@@H](NC(=O)CNC(=O)[C@H](CCCCN)NC(=O)[C@H](C)NC(C)=O)[C@@H](C)CC)C(C)C)[C@@H](C)CC)[C@@H](C)CC)C(N)=O [PRE 3] (Ac-AKGIQEVKGGDAQNLIGISI-NH2) |
| L | H | H |  | CC[C@H](C)[C@H](NC(=O)[C@H](CO)NC(=O)[C@@H](NC(=O)CNC(=O)[C@@H](NC(=O)[C@H](CC(C)C)NC(=O)[C@H](CC(N)=O)NC(=O)[C@H](CCC(N)=O)NC(=O)[C@H](C)NC(=O)[C@H](CC(=O)O)NC(=O)[C@H](CCCCN)NC(C)=O)[C@@H](C)CC)[C@@H](C)CC)C(N)=O [PRE 4, Ac-KDAQNLIGISI-NH2] (Ac-KDAQNLIGISI-NH2) |
| — | L | M | inhibition at 50 µM (PKC-βII; [1]): 0%; inhibition at 100 µM (PKC-βII; [2]): 0%; inhibition at 200 µM (PKC-βII; PRE 200 μM, purified PKC-βII, read-out: calculated binding capacity (100-% n, DMSO apparent binding subtracted)): 0%; inhibition at 50 µM (PKC-δ; PRE 50 μM, purified PKC-δ (may be overestimated), read-out: calculated binding capacity (100-% n, DMSO apparent binding subtracted)): 0.2%; inhibition at 100 µM (PKC-δ; PRE 100 μM, purified PKC-δ (may be overestimated), read-out: calculated binding capacity (100-% n, DMSO apparent binding subtracted)): 0% | CC[C@H](C)[C@H](NC(=O)[C@H](CO)NC(=O)[C@@H](NC(=O)CNC(=O)[C@@H](NC(=O)[C@H](CC(C)C)NC(=O)[C@H](CC(N)=O)NC(=O)[C@H](CCC(N)=O)NC(=O)[C@H](C)NC(=O)[C@H](CC(=O)O)NC(=O)[C@H](CCCCN)NC(=O)CNC(=O)CNC(=O)[C@H](CCCCN)NC(=O)[C@@H](NC(=O)[C@H](CCC(=O)O)NC(=O)[C@H](CCC(N)=O)NC(=O)[C@@H](NC(=O)CNC(=O)[C@H](CCCCN)NC(=O)[C@H](C)NC(C)=O)[C@@H](C)CC)C(C)C)[C@@H](C)CC)[C@@H](C)CC)C(N)=O [PRE 5] (Ac-AKGIQEVKGGKDAQNLIGISI-NH2) |
| L | — | H/L |  | Ac-ISIGILNQADK-NH2 [PRE 10] |
| — | — | L |  | Ac-ISIGILQNADK-NH2 (not fully specified; printed as Ac-ISIGILQNADK-NH2) [PRE 7] |
| — | L | H/L |  | Ac-KDANQLIGISI-NH2 [PRE 6] |
| — | L | — |  | Ac-KDAQNLI-NH2 [PRE 12] |
| — | L | M/H |  | Ac-RDAQNLI-NH2 [PRE 13] |
| — | H | H/L |  | Ac-RDAQNLIGISI-NH2 [PRE 11] |
| H | L | M/L | calculated binding capacity (100-% n, DMSO apparent binding subtracted) (PKC-βII; PRE 50 μM, purified PKC-βII): 8.14%; calculated binding capacity (100-% n, DMSO apparent binding subtracted) (PKC-βII; PRE 100 μM, purified PKC-βII): 0.3%; calculated binding capacity (100-% n, DMSO apparent binding subtracted) (PKC-δ; PRE 50 μM, purified PKC-δ (may be overestimated)): 16.23%; calculated binding capacity (100-% n, DMSO apparent binding subtracted) (PKC-δ; PRE 100 μM, purified PKC-δ (may be overestimated)): 19.27%; calculated binding capacity (100-% n, DMSO apparent binding subtracted) (PKC-δ; PRE 200 μM, purified PKC-δ (may be overestimated)): 9.95% | Ac-isigilqnadk-NH2 (Ac-[dI][dS][dI]G[dI][dL][dQ][dN][dA][dD][dK]-NH2; SMILES CC[C@@H](C)[C@@H](NC(C)=O)C(=O)N[C@H](CO)C(=O)N[C@@H](C(=O)NCC(=O)N[C@@H](C(=O)N[C@H](CC(C)C)C(=O)N[C@H](CCC(N)=O)C(=O)N[C@H](CC(N)=O)C(=O)N[C@H](C)C(=O)N[C@H](CC(=O)O)C(=O)N[C@H](CCCCN)C(N)=O)[C@H](C)CC)[C@H](C)CC) [PRE 9] |
| — | — | M/L |  | ILEDKGGDAQNLIGISI [PRE 8] |
| — | H | H |  | RRKKGGKDFVVKR [PRE 1] |
